According to paper PMC12730228, “Targeted NanoBiT Screening Identifies a Novel Interaction Between SNAPIN and Influenza A Virus M1 Protein” (Biology, 2025):

What was measured:
SmN-SNAPIN (human) = SmN-SNAPIN (human) (UniProt O95295); experiment: split reporter (BiFC, NanoBiT)
SmN-SNAPIN = target: T1, SmN-SNAPIN (human, UniProt O95295 1-136); experiment: split reporter (BiFC, NanoBiT); conditions: partners not purified
T1 construct: also called SNAPIN-SmBiT; not shown: SmBiT, N-terminal, kept
T1 sequence (looked up): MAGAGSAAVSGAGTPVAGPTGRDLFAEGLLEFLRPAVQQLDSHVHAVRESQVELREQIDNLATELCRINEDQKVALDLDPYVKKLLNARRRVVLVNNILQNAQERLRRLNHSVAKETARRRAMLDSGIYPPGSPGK

Flag-M1 = target: T2, Flag-M1 (influenza A virus A/WSN/33 (H1N1), UniProt P05777 1-252); experiment: pull-down; conditions: both partners purified
T2 construct: also called Flag-tagged M1; M1 protein; not shown: Flag, N-terminal, kept
T2 sequence (P05777 whole entry): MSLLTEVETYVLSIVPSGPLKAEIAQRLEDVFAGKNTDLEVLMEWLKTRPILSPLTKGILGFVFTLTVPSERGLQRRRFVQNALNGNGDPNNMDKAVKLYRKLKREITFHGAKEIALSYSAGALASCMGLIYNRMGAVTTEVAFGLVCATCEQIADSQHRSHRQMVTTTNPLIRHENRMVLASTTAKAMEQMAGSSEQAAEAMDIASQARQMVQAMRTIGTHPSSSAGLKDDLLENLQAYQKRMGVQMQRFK

LgN-NS2 (natural protein)
fold signal increase relative to the negative control (SmN-SNAPIN (human)): 2.37 fold

B1: LgN-M2 (natural protein)
chain: MSLLTEVETPIRNEWGCRCNDSSDPLVIAANIIGILHLILWILDRLFFKCIYRRFKYGLKRGPSTEGVPESMREEYRKEQQNAVDVDDGHFVNIELE
notes: also called matrix protein 2; not shown: LgBiT, N-terminal, kept
fold signal increase relative to the negative control (SmN-SNAPIN): 8.62 fold

B2: GST-SNAPIN (natural protein, human, UniProt O95295 1-136, looked up)
chain: T1 sequence (looked up)
notes: also called GST-tagged SNAPIN
binding result (Flag-M1): binds
